Measured values taken from US20160153985A1.

How the values were obtained:
[1] = biological target: pure human iC3b (Complement Technology, A115) (human) (UniProt P01024); assay: sandwich ELISA, capture A209 (Example 5), goat anti-C3-HRP; TABLE 6 well A3, blocker
[2] = biological target: pure human iC3b (Complement Technology, A115) (human) (UniProt P01024); assay: sandwich ELISA, capture A209 (Example 5), goat anti-C3-HRP; TABLE 6 well H2, 10% vitreous
[3] = biological target: pure human iC3b (Complement Technology, A115) (human) (UniProt P01024); assay: sandwich ELISA of Example 5, iC3b concentration labeled 0.0125 in 20% human vitreous, mean of duplicates less background
[4] = biological target: pure human iC3b (Complement Technology, A115) (human) (UniProt P01024); assay: sandwich ELISA, capture A209 (Example 5), goat anti-C3-HRP; TABLE 6 well D2, 30% vitreous
[5] = biological target: pure human iC3b (Complement Technology, A115) (human) (UniProt P01024); assay: sandwich ELISA, capture A209 (Example 5), goat anti-C3-HRP; TABLE 6 well D7, 30% vitreous
[6] = biological target: pure human iC3b (Complement Technology, A115) (human) (UniProt P01024); assay: sandwich ELISA, capture A209 (Example 5), goat anti-C3-HRP; TABLE 6 well A5, blocker
[7] = biological target: pure human iC3b (Complement Technology, A115) (human) (UniProt P01024); assay: sandwich ELISA, capture A209 (Example 5), goat anti-C3-HRP; TABLE 6 well A6, blocker
[8] = biological target: pure human iC3b (Complement Technology, A115) (human) (UniProt P01024); assay: sandwich ELISA, capture A209 (Example 5), goat anti-C3-HRP; TABLE 6 well G5, 10% vitreous
[9] = biological target: pure human iC3b (Complement Technology, A115) (human) (UniProt P01024); assay: sandwich ELISA, capture A209 (Example 5), goat anti-C3-HRP; TABLE 6 well E8, 20% vitreous
[10] = biological target: pure human iC3b (Complement Technology, A115) (human) (UniProt P01024); assay: sandwich ELISA, capture A209 (Example 5), goat anti-C3-HRP; TABLE 6 well B9, blocker
[11] = biological target: pure human iC3b (Complement Technology, A115) (human) (UniProt P01024); assay: sandwich ELISA, capture A209 (Example 5), goat anti-C3-HRP; TABLE 6 well E4, 20% vitreous
[12] = biological target: pure human iC3b (Complement Technology, A115) (human) (UniProt P01024); assay: sandwich ELISA, capture A209 (Example 5), goat anti-C3-HRP; TABLE 6 well F7, 20% vitreous
[13] = biological target: pure human iC3b (Complement Technology, A115) (human) (UniProt P01024); assay: sandwich ELISA, capture A209 (Example 5), goat anti-C3-HRP; TABLE 6 well B3, blocker
[14] = biological target: pure human iC3b (Complement Technology, A115) (human) (UniProt P01024); assay: sandwich ELISA, capture A209 (Example 5), goat anti-C3-HRP; TABLE 6 well A9, blocker
[15] = biological target: pure human iC3b (Complement Technology, A115) (human) (UniProt P01024); assay: sandwich ELISA, capture A209 (Example 5), goat anti-C3-HRP; TABLE 6 well B4, blocker
[16] = biological target: pure human iC3b (Complement Technology, A115) (human) (UniProt P01024); assay: sandwich ELISA, capture A209 (Example 5), goat anti-C3-HRP; TABLE 6 well C6, 30% vitreous
[17] = biological target: pure human iC3b (Complement Technology, A115) (human) (UniProt P01024); assay: sandwich ELISA, capture A209 (Example 5), goat anti-C3-HRP; TABLE 6 well H9, 10% vitreous
[18] = biological target: pure human iC3b (Complement Technology, A115) (human) (UniProt P01024); assay: sandwich ELISA, capture A209 (Example 5), goat anti-C3-HRP; TABLE 7, iC3b in 30% vitreous
[19] = biological target: pure human iC3b (Complement Technology, A115) (human) (UniProt P01024); assay: sandwich ELISA, capture A209 (Example 5), goat anti-C3-HRP; TABLE 6 well D9, 30% vitreous
[20] = biological target: pure human iC3b (Complement Technology, A115) (human) (UniProt P01024); assay: sandwich ELISA, capture A209 (Example 5), goat anti-C3-HRP; TABLE 6 well A8, blocker

Chain of UniProt P01024 (P01024 23-667 limits assumed, chain 1 of 3): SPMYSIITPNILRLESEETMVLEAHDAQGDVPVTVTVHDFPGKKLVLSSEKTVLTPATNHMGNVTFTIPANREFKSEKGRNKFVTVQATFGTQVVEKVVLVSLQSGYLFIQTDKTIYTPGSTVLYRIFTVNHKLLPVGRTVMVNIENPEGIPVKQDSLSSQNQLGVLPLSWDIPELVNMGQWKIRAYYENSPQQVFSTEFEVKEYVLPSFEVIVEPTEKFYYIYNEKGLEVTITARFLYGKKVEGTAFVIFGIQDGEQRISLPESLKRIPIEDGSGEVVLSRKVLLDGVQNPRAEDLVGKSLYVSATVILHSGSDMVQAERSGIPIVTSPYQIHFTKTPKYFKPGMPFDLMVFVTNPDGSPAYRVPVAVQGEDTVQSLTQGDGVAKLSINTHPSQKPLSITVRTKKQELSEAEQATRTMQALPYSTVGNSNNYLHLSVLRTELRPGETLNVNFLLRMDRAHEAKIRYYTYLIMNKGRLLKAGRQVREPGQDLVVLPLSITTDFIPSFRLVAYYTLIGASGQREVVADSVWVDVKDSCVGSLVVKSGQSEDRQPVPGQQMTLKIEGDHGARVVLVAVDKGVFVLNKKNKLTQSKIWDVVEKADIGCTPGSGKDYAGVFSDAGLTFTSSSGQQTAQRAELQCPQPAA
Chain of UniProt P01024 (P01024 749-1303 limits assumed, chain 2 of 3): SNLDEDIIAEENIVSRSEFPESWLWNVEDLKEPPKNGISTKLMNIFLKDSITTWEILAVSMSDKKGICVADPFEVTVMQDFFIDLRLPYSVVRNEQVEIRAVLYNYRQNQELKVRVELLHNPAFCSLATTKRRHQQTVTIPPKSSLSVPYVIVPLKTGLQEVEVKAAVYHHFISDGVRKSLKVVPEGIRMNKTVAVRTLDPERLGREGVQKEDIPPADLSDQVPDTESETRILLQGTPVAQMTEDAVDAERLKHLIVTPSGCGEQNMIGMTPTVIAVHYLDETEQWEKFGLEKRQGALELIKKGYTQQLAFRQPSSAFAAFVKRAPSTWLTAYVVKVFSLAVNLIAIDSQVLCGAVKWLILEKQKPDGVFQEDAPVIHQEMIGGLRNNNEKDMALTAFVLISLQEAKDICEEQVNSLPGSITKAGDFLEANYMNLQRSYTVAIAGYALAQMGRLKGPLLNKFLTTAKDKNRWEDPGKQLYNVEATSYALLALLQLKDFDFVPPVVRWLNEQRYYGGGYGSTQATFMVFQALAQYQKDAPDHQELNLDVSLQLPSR
Chain of UniProt P01024 (P01024 1321-1663 limits assumed, chain 3 of 3): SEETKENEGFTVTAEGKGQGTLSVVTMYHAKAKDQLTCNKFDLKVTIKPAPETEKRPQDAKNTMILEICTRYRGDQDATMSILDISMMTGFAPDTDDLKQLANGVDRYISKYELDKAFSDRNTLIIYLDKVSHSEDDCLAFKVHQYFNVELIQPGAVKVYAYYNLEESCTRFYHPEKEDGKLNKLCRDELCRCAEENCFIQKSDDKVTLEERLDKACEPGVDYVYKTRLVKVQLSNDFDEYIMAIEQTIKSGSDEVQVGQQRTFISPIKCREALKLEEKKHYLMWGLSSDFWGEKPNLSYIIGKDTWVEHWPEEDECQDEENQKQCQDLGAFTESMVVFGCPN

raw A450 at iC3b 0.5 ug/ml [1]: 0.258 OD
raw A450 at iC3b 1 ug/ml [2]: 0.42 OD
net absorbance A450 (matrix only value 0.328 subtracted) [3]: 0.049 A450
raw A450 at iC3b 1 ug/ml [4]: 0.453 OD
raw A450 at iC3b 0.031 ug/ml [5]: 0.356 OD
raw A450 at iC3b 0.125 ug/ml [6]: 0.106 OD
raw A450 at iC3b 0.063 ug/ml [7]: 0.064 OD
raw A450 at iC3b 0.125 ug/ml [8]: 0.274 OD
raw A450 at iC3b 0.016 ug/ml [9]: 0.321 OD
raw A450 at iC3b 0.0078 ug/ml [10]: 0.032 OD
raw A450 at iC3b 0.25 ug/ml [11]: 0.411 OD
raw A450 at iC3b 0.031 ug/ml [12]: 0.333 OD
raw A450 at iC3b 0.5 ug/ml [13]: 0.265 OD
raw A450 at iC3b 0.0078 ug/ml [14]: 0.035 OD
raw A450 at iC3b 0.25 ug/ml [15]: 0.167 OD
raw A450 at iC3b 0.063 ug/ml [16]: 0.375 OD
raw A450 at iC3b 0.0078 ug/ml [17]: 0.207 OD
A450 minus matrix average at iC3b 0.0078 ug/ml [18]: 0.0042 OD
A450 minus matrix average at iC3b 0.016 ug/ml [18]: -0.02 OD
A450 minus matrix average at iC3b 0.031 ug/ml [18]: -0.005 OD
A450 minus matrix average at iC3b 0.063 ug/ml [18]: 0.008 OD
A450 minus matrix average at iC3b 0.125 ug/ml [18]: 0.027 OD
A450 minus matrix average at iC3b 0.25 ug/ml [18]: 0.051 OD
A450 minus matrix average at iC3b 0.5 ug/ml [18]: 0.045 OD
A450 minus matrix average at iC3b 1 ug/ml [18]: 0.087 OD
raw A450 at iC3b 0.0078 ug/ml [19]: 0.362 OD
raw A450 at iC3b 0.016 ug/ml [20]: 0.043 OD
Substance: mouse anti-iC3b antibody A209 (Quidel)
